Assays:
[1] = molecular target: T1, E. coli Trigger Factor (TF), full length (E. coli, UniProt P0A850 1-432); experiment: NMR titration
T1 sequence (looked up): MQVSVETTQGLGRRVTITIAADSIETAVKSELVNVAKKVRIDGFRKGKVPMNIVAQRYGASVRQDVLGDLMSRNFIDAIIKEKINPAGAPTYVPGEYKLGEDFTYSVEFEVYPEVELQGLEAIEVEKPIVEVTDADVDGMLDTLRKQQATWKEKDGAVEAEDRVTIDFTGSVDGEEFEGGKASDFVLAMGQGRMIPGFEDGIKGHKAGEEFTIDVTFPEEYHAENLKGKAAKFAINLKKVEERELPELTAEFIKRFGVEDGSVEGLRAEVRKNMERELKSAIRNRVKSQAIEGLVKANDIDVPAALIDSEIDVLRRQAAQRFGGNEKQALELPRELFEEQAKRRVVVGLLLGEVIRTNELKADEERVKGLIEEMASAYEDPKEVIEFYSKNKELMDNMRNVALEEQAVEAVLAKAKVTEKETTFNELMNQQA

[2] = molecular target: T1, E. coli Trigger Factor (TF), full length; experiment: ITC
[3] = molecular target: T1, E. coli Trigger Factor (TF), full length; experiment: ITC + NMR titration

B1: PhoA^a-c (PhoA fragment with TF-binding sites a to c) (domain or fragment, E. coli, UniProt P00634 1-150, looked up)
chain: MKQSTIALALLPLLFTPVTKARTPEMPVLENRAAQGDITAPGGARRLTGDQTAALRDSLSDKPAKNIILLIGDGMGDSEITAARNYAEGAGGFFKGIDALPLTGQYTHYALNKKTGKPDYVTDSAASATAWSTGVKTYNGALGVDIHEKD
With B1 the “stoichiometry N” value [1] was 1 TF per PhoA^a-c and the Kd [2] was about 2 µM.

B2: PhoA site b (independent fragment) (domain or fragment)
chain: TPEMPVLENRAAQGDITAPGGARRLTGDQTAALRDSLSDKPAKNIILLIGDGMGDS
With B2 the Kd [3] was about 200 µM.

B3: PhoA^d-e (PhoA fragment with TF-binding sites d and e) (domain or fragment, E. coli)
chain: ARADVTLGGGAKTFAETATAGEWQGKTLREQAQARGYQLVSDAASLNSVTEANQQKPLLGLFADGNMPVRWLGPKATYHGNIDKPAVTCTP
Binder B3 has a Kd [2] of about 4 µM.

B4: PhoA^f-g (PhoA fragment with TF-binding sites f and g) (domain or fragment, E. coli)
chain: QIGETVDLDEAVQRALEFAKKEGNTLVIVTADHAHASQIVAPDTKAPGLTQALNTKDGAVMVMSYGNSEEDSQEHTGSQLRIAAYGPHAANVVGLTDQTDLFYTMKAALGLK
Binder B4 has a Kd [2] of about 14 µM.
